The assay addresses T1, recombinant human MCP-1 (CCL2) (human, UniProt P13500 24-99).
T1 construct: Bought recombinant protein; also called RHMCP-1; monocyte chemoattractant protein-1
The experiment in a line: direct ELISA (O.D. 450 nm), chemokine coated at 100 ng/ml, CCR2(E3)-IgG at 5 ug/ml; reference: other human chemokines tested. The protocol: ELISA—The binding specificity of CCR2(E3)-IgG to various commercially available human chemokines (PeproTech, Rocky Hill, N.J.) was determined by direct ELISA as follows: 96-well ELISA plates (Nunc, Roskilde, Denemark) were coated with 100 ng/ml of each chemokine, washed and blocked with 1% BSA/PBS. CCR2(E3)-IgG at a concentration 5 μg/ml was then added. HRP labeled mouse anti human Ig (Jackson, Pa.) was added as a second Antibody. Results are shown as O.D. reading at 450 nm. Anti CCL2 monoclonal antibody (MAB679; R&D Systems, Minneapolis, […].) was used as a positive control (1 μg/ml).
Background: In an ELISA, binding on a coated surface is turned into a signal by an enzyme label.

T1 sequence (P13500 24-99 limits assumed): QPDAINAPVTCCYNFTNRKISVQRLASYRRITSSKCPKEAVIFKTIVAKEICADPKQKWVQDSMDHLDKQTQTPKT

B1: CCR2(E3)-IgG fusion protein (Fc fusion)
chain: GLSNCESTSQLDQATQVTET
notes: also called Ig-E3; CCR2-IgG; not shown: constant region (Hinge-CH2-CH3) of human IgG1 heavy chain, ligated downstream of CCR2 (E3)
B1: the “fold binding against other factors tested” value was about 4 fold.

These data come from patent US20110033521A1 (RAPPAPORT FAMILY INSTITUTE FOR RESEARCH IN THE MEDICAL …, published 2011).
